Measured values reported in patent EP4349858A1 (CentricsBio, Inc., dated 2024).

Experiments:
[1] = molecular target: T1, CD300c antigen (11832-H08H, Sino Biological) (UniProt Q08708 21-183); test: binding ELISA, CD300c antigen coated
T1 construct: Bought recombinant antigen coated on ELISA plates; the same entry is used for it
T1 sequence (looked up): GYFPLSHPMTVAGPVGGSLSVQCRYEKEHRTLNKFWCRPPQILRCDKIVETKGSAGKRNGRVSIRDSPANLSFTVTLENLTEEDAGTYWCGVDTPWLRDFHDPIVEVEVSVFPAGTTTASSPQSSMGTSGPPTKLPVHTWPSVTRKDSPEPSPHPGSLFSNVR

mouse CD300c antigen = molecular target: T2, mouse CD300c antigen (mouse); test: cell-based or functional assay
T2 sequence (A2A7V7 whole entry, looked up): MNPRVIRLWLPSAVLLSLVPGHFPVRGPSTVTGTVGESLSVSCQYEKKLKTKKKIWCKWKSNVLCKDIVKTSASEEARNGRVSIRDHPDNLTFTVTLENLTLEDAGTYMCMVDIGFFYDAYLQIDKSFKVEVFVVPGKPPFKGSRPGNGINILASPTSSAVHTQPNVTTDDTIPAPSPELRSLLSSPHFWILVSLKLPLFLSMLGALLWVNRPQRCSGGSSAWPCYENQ

[2] = molecular target: T3, CD300a antigen (12449-H08H, Sino Biological) (UniProt Q9UGN4 18-180); test: binding ELISA, antigen coated on plate
T3 construct: Bought recombinant antigen
T3 sequence (looked up): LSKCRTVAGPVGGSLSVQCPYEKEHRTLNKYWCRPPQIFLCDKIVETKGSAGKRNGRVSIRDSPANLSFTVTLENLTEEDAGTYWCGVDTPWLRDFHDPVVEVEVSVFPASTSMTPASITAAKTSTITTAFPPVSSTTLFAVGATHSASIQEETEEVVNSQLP

B1: anti-CD300c monoclonal antibody CK1 (antibody, V domains shown)
VH: EVQLLESGGGLVQPGGSLRLSCAASGFTFSRYAMTWVRQAPGKGLEWVSSMSGTGGTTYYADSVKGRFTISRDNSKNTLYLQMNSLRAEDTAVYYCARGAYGFDHWGQGTLVTVSS
VL: EIVLTQSPGTLSLSPGERATLSCRASQSIGNYLNWYQQKPGQAPRLLIYDASNLETGIPDRFSGSGSGTDFTLTISRLEPEDFAVYYCQQSSAIPYTFGQGTKVEIK
notes: Selected as scFv phage clone (kappa library); expressed from separate heavy and light chain vectors in 293T cells, purified on protein A
With B1 the EC50 [1] was ≤ 0.2 µg/mL.

B2: anti-CD300c monoclonal antibody CL7 (antibody, V domains shown)
VH: EVQLLESGGGLVQPGGSLRLSCAASGFTFSRYAMSWVRQAPGKGLEWVSAISGSGGSTYYADSVKGRFTISRDNSKNTLYLQMNSLRAEDTAVYYCARSSQGIFDIWGQGTLVTVSS
VL: QSVLTQPPSASGTPGQRVTISCSGNNIGTRRVHWYQQLPDTAPKLLIYSKNNRPSGVPDRFSGSKSGTSASLAISGLRSEDEADYYCAAWDDSLSGPVFGGGTKLTVL
notes: expressed as heavy and light chains in 293T cells, protein A purified
For B2, the “cancer cell proliferation inhibitory effect, CT26 mouse colorectal cancer cell line, CCK-8, 10 ug/mL antibody, 5 days” value (mouse CD300c antigen) was 66%, the EC50 [1] was ≤ 0.2 µg/mL and the binding result [2] was “no binding”.

B3: anti-CD300c monoclonal antibody CL9 (antibody, V domains shown)
VH: EVQLLESGGGLVQPGGSLRLSCAASGFTFSSYYWSWVRQAPGKGLEWVSAISGSGGSTYYADSVKGRFTISRDNSKNTLYLQMNSLRAEDTAVYYCARIDVYGFDIWGQGTLVTVSS
VL: QSVLTQPPSASGTPGQRVTISCSGSTSNIGTNYVYWYQQLPGTAPKLLIYDNNNRPSGVPDRFSGSKSGTSASLAISGLRSEDEADYYCQTWDSSTDVVFGGGTKLTVL
notes: as for B2
With B3 the EC50 [1] was ≤ 0.2 µg/mL.

B4: anti-CD300c monoclonal antibody CL4 (antibody, V domains shown)
VH: RVQLLESGGGLVQPGGSLRLSCAASGFTFGSNYMSWVRQAPGKGLEWVSTISGSGTSTYYADSLKGRFTISRDNSKNTLYLQMNSLRAEDTAVYYCARGMWGMDVWGQGTLVTVSS
VL: QSVLTQPPSASGTPGQRVTISCTGKHRHTVNWYQLLPGTAPKLLIYLDSERPSGVPDRFSGSKSGTSASLAISGLRSEDEADYYCQSYDSSSVVFGGGTKLTVL
notes: as for B2
With B4 the EC50 [1] was ≤ 0.2 µg/mL.

B5: anti-CD300c monoclonal antibody SK14 (antibody, V domains shown)
VH: EVQLLESGGGLVQPGGSLRLSCAASGFTFSNFAIAWVRQAPGKGLEWVSAISGRGTSTYYADSVKGRFTISRDNSKNTLYLQMNSLRAEDTAVYYCARGVSGFDSWGQGTLVTVSS
VL: EIVLTQSPGTLSLSPGERATLSCRASQSISSHLAWYQQKPGQAPRLLIYDTSNRATGIPDRFSGSGSGTDFTLTISRLEPEDFAVYYCQQSYSTPFTFGQGTKVEIK
notes: as for B2
For B5, the EC50 [1] was ≤ 0.2 µg/mL.

B6: anti-CD300c monoclonal antibody SL18 (antibody, V domains shown)
VH: RVQLLESGGGLVQPGGSLRLSCAASGFTFSDYHMHWVRQAPGKGLEWVSTISSSGGYTYYAESVKSRFTISRDNSKNTLYLQMNSLRAEDTAVYYCARSIRLPLDYWGQGTLVTVSS
VL: QSVLTQPPSASGTPGQRVTISCSGNNIGSKGVHWYQQLPGTAPKLLIYEDSKRPSGVRDRFSGSKSGTSASLAISGLRSEDEADYYCQSYDSTKGVVFGGGTKLTVL
notes: as for B2
B6 was tested, and the “cancer cell proliferation inhibitory effect, CT26 mouse colorectal cancer cell line, CCK-8, 10 ug/mL antibody, 5 days” value (mouse CD300c antigen) was 38% and the EC50 [1] was ≤ 0.2 µg/mL.

B7: anti-CD300c monoclonal antibody SK13 (antibody, V domains shown)
VH: RVQLLESGGGLVQPGGSLRLSCAASGFTFSDYAMSWVRQAPGKGLEWVSSISSSSSYIYYTDSVKGRFTISRDNSKNTLYLQMNSLRAEDTAVYYCARGGYGFDYWGQGTLVTVSS
VL: EIVLTQSPGTLSLSPGERATLSCRASQSISSYLNWYQQKPGQAPRLLIYSASSRPQGIPDRFSGSGSGTDFTLTISRLEPEDFAVYYCQQYDDLPFTFGQGTKVEIK
notes: as for B2
For B7, the EC50 [1] was ≤ 0.2 µg/mL.

B8: anti-CD300c monoclonal antibody CL6 (antibody, V domains shown)
VH: EVQLLESGGGLVQPGGSLRLSCAASGFTFSSYGMHWVRQAPGKGLEWVSAISGSGGSTYYADSVKGRFTISRDNSKNTLYLQMNSLRAEDTAVYYCAVSGAGRGFFDYWGQGTLVTVSS
VL: QSVLTQPPSASGTPGQRVTISCSGSSSNIGSNYVYWYQQLPGTAPKLLIYEDNKRPSGVPDRFSGSKSGTSASLAISGLRSEDEADYYCSSYTSSSTVIFGGGTKLTVL
notes: as for B2
With B8 the EC50 [1] was ≤ 0.2 µg/mL.

B9: anti-CD300c monoclonal antibody SK17 (antibody, V domains shown)
VH: EVQLLESGGGLVQPGGSLRLSCAASGFTFSSYYWSWVRQAPGKGLEWVSTITGSGGSTDYANSVKGRFTISRDNSKNTLYLQMNSLRAEDTAVYYCATGGGIFDYWGQGTLVTVSS
VL: EIVLTQSPGTLSLSPGERATLSCQASQTISNYLNWYQQKPGQAPRLLIYDASNRATGIPDRFSGSGSGTDFTLTISRLEPEDFAVYYCQQYNSYPPSFGQGTKVEIK
notes: as for B2
For B9, the EC50 [1] was ≤ 0.2 µg/mL.

B10: anti-CD300c monoclonal antibody CL5 (antibody, V domains shown)
VH: RVQLLESGGGLVQPGGSLRLSCAASGFTFSSYAMHWVRQAPGKGLEWVSSISGGGYGTYYADSVKGRFTISRDNSKNTLYLQMNSLRAEDTAVYYCARSTVWAFDIWGQGTLVTVSS
VL: QSVLTQPPSASGTPGQRVTISCSGNNIGSKSVHWYQQLPGTAPKLLIYDVSKRPSERPDRFSGSKSGTSASLAISDLRSEDEADYYCQSFDSSGTWIFGGGTKLTVL
notes: as for B2
For B10, the EC50 [1] was ≤ 0.2 µg/mL.

B11: anti-CD300c monoclonal antibody CL10 (antibody, V domains shown)
VH: EVQLLESGGGLVQPGGSLRLSCAASGFTFSSYGMHWVRQAPGKGLEWVSAISGSGGSTYYADSVKGRFTISRDNSKNTLYLQMNSLRAEDTAVYYCASGYGLMDVWGQGTLVTVSS
VL: QSVLTQPPSASGTPGQRVTISCTRSSGIIASNYVQWYQQLPGTAPKLLIYRNNQRPSGVPDRFSGSKSGTSASLAISGLRSEDEADYYCSSYAGNNNLVFGGGTKLTVL
notes: as for B2
With B11 the “cancer cell proliferation inhibitory effect, CT26 mouse colorectal cancer cell line, CCK-8, 10 ug/mL antibody, 5 days” value (mouse CD300c antigen) was 15% and the EC50 [1] was ≤ 0.2 µg/mL.

B12: anti-CD300c monoclonal antibody SK11 (antibody, V domains shown)
VH: RVQLLESGGGLVQPGGSLRLSCAASGFTFSTYGMHWVRQAPGKGLEWVSAISGSGGSTYYADSVKGRFTISRDNSKNTLYLQMNSLRAEDTAVYYCARGLSGLDYWGQGTLVTVSS
VL: EIVLTQSPGTLSLSPGERATLSCRSSQGITNYLAWYQQKPGQAPRLLIYDASNRATGIPDRFSGSGSGTDFTLTISRLEPEDFAVYYCQQSYSTPLTFGQGTKVEIK
notes: as for B2
For B12, the EC50 [1] was ≤ 0.2 µg/mL.

B13: anti-CD300c monoclonal antibody CK2 (antibody, V domains shown)
VH: EVQLLESGGGLVQPGGSLRLSCAASGFTFSSYGMHWVRQAPGKGLEWVSAISGSGTSIYYADSVKGRFTISRDNSKNTLYLQMNSLRAEDTAVYYCARGGTAFDYWGQGTLVTVSS
VL: EIVLTQSPGTLSLSPGERATLSCRASQRSDNYLAWYQQKPGQAPRLLIYDASNRATGIPDRFSGSGSGTDFTLTISRLEPEDFAVYYCQQSYSTPFTFGQGTKVETK
notes: as for B2
In the case of B13, the EC50 [1] is reported as ≤ 0.2 µg/mL.

B14: anti-CD300c monoclonal antibody SK12 (antibody, V domains shown)
VH: RVQLLESGGGLVQPGGSLRLSCAASGFTFSSYAMHWVRQAPGKGLEWVSAISGSGGDTYHADSVKGRFTISRDNSKNTLYLQMNSLRAEDTAVYYCTRGLSGFDYWGQGTLVTVSS
VL: EIVLTQSPGTLSLSPGERATLSCRASQSISSYLNWYQQKPGQAPRLLIYDASNRAPGIPDRFSGSGSGTDFTLTISRLEPEDFAVYYCQQSYSIPITFGQGTKVEIKF
notes: as for B2
With B14 the EC50 [1] was ≤ 0.2 µg/mL.
